In publication PMC3681700 (Molecular Biology of the Cell, 2013):
Where two headings read alike, the source gives them in different places.

Assays:
[1] = biological target: T1, Taxol-stabilized microtubules assembled from bovine brain tubulin (bovine, UniProt Q6B856 1-445); test: co-sedimentation
[2] = biological target: T1, Taxol-stabilized microtubules assembled …

B1: MAP65-4 (GFP-MAP65-4) (natural protein, Arabidopsis thaliana, UniProt Q9LZY0 1-677, looked up)
chain: MIRNSTEQFSRIETTCGLLLRQLQEIWNEMGETEDEKDASLADIEKECLSVYKRKVEEASRGKANLLKEIAVGRAEIAAIGSSMGGQEIHSNSRLGENLKEELENVNVQLDGLRKRKAERMIRFNEVIDQLLKLSLQLGNPTDYLKKFAAEETDLSLQRLEELRSQLGELQNEKSKRLEEVECLLKTLNSLCSVLGEDFKGMIRGIHSSLVDSNTRDVSRSTLDKLDMMIVNLREAKLQRMQKVQDLAVSLLELWNLLDTPAEEQKIFHNVTCSIALTESEITEANILSVASIKRVEDEVIRLSKIKITKIKEVILRKRLELEEISRKMHMATEVLKSENFSVEAIESGVKDPEQLLEQIDSEIAKVKEEASSRKEILEKVEKWMSACEEESWLEEYNRDDNRYNAGRGAHLTLKRAEKARLLVNKLPGMVEALTAKVTAWENERGNEFLYDGVRVLSMLGQYKTVWEEKEHEKQRQRDMKKLHGQLITEQEALYGSKPSPNKSGKKPLRTPVNAAMNRKLSLGGAMLHQSLKHEKATLNSKRTKYYDQNATSRRDSALPTLSGRRNSELPGRIRSKNVPVAGKAARSPMLRKPLSPVTSNILNSPEDHHKDAYTTKERILTPKTNEEKKRAVPTTPAASVAMTEATTPFTPAVEKRMDEEDVIVEYSFEEVRAGFC
[1]
  Kd: 19 ± 2 nM

B2: Ase1 (natural protein, yeast, UniProt P50275 1-885, looked up)
chain: METATSSPLPIKSRRNSENSGSTTVIPHMNPSLATPLTVSTMVNQSNSKEFMKLTPVRIRDFGSPLKNVSTNYHFLDSENGKGNTMDNMYRENFILISKDLEKLLENLNVIYQNIGYSNTEIITKEKIIFTTISNSIKQFFEQADEELKRLSAENGIEQDILNNILERINDPSGIKTIPDLYIRNAILLQESKTVPQSPKKPLSLLSKKAALDTAKKFVLGSFLPRLRDYLKSLITLKHLIQSVKENLPGLTEADNEAIAEFPELSTLTAYLLQIENGKGDIGLSMKFIIDNRKDILKGSAFKTINEESVKHMNEVIKIYEEEYERRFKSVLTKKVSISSICEQLGTPLATLIGEDFEQDLRSYGEEENSTSEIPNFHPVDRERMSKIDITLEKLQAIHKERADKKRLLMEQCQKLWTRLKISQEYIKTFMRNNSSLSTESLGRISKEVMRLEAMKKKLIKKLISDSWDKIQELWRTLQYSEESRSKFIIVFEELRNSATTLQEDELLLETCENELKRLEEKLTLYKPILKLISDFESLQEDQEFLERSSKDSSRLLSRNSHKILLTEEKMRKRITRHFPRVINDLRIKLEEADGLFDQPFLFKGKPLSEAIDIQQQEIEAKYPRCRVRMQRSKKGKCGANKENKVIKNTFKATESSIRVPIGLNLNDANITYKTPSKKTIQGLTKNDLSQENSLARHMQGTTKLSSPNRRATRLLAPTVISRNSKGNIERPTLNRNRSSDLSSSPRINHTHGEHAVKPRQLFPIPLNKVDTKGSHIPQLTKEKALELLKRSTGTTGKENVRSPERKSSLEDYAQKLSSPYKEPEHSIYKLSMSPEGKFQLNIQQKDIESGFDDTSMMEDENDKDFITWKNEQVSKLNGFSFTDI
[2]
  Kd: 41 ± 7 nM

B3: MAP65-1 (GFP-MAP65-1) (natural protein, Arabidopsis thaliana, UniProt Q9FLP0 1-587, looked up)
chain: MAVTDTESPHLGEITCGTLLEKLQEIWDEVGESDDERDKLLLQIEQECLDVYKRKVEQAAKSRAELLQTLSDANAELSSLTMSLGDKSLVGIPDKSSGTIKEQLAAIAPALEQLWQQKEERVREFSDVQSQIQKICGDIAGGLSNEVPIVDESDLSLKKLDDFQSQLQELQKEKSDRLRKVLEFVSTVHDLCAVLGLDFLSTVTEVHPSLDEDTSVQSKSISNETLSRLAKTVLTLKDDKKQRLQKLQELATQLIDLWNLMDTPDEERELFDHVTCNISSSVDEVTVPGALARDLIEQAEVEVDRLDQLKASRMKEIAFKKQSELEEIYARAHVEVNPESARERIMSLIDSGNVEPTELLADMDSQISKAKEEAFSRKDILDRVEKWMSACEEESWLEDYNRDQNRYSASRGAHLNLKRAEKARILVSKIPAMVDTLVAKTRAWEEEHSMSFAYDGVPLLAMLDEYGMLRQEREEEKRRLREQKKVQEQPHVEQESAFSTRPSPARPVSAKKTVGPRANNGGANGTHNRRLSLNANQNGSRSTAKEAGRRETLNRPAAPTNYVAISKEEAASSPVSGAADHQVPASP
[1]
  Kd: 21 ± 2 nM
